Holding throughout (experiment): SPR
Experiment [1] addresses T1, human FcγRIa (human, UniProt P12314).
T1 chain: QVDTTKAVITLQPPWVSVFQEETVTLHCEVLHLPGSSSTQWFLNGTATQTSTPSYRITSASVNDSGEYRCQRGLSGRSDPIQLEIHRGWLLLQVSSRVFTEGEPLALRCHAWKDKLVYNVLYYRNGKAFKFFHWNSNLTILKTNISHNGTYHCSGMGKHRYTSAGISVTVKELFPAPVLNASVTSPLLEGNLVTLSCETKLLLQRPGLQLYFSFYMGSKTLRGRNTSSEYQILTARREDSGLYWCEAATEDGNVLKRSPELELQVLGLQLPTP

The target of experiment [2] is T2, human FcγRIIa R131 (human, UniProt P12318).
T2 chain: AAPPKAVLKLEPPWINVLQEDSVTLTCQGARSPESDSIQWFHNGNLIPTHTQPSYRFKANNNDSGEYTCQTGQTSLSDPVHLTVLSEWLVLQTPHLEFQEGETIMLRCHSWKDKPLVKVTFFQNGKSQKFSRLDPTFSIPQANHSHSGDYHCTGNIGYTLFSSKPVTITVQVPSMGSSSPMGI

In experiment [3] the target is T1, human FcγRIa.
For experiment [4], the target named is T3, human FcγRIIb (human, UniProt P31994).
T3 chain: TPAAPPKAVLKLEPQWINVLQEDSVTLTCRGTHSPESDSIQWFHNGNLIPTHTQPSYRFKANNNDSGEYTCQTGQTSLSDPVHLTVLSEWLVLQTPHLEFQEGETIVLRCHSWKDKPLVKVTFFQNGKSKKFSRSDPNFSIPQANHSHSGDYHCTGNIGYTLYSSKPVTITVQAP

The target of experiment [5] is T1, human FcγRIa.
Experiment [6] concerns the target T2, human FcγRIIa R131.
Experiment [7] concerns the target T3, human FcγRIIb.

Eight molecules from patent US11827699 (dated 2023) can be followed below.

Like-named read-outs stand apart in the source and are kept apart here.

B1: IL6R-BP267 (antibody)
chain 1: QVQLQESGPGLVKPSETLSLTCAVSGHSISHDHAWSWVRQPPGEGLEWIGFISYSGITNYNPSLQGRVTISRDNSKNTLYLQMNSLRAEDTAVYYCARSLARTTAMDYWGEGTLVTVSSASTKGPSVFPLAPSSKSTSGGTAALGCLVKDYFPEPVTVSWNSGALTSGVHTFPAVLQSSGLYSLSSVVTVPSSSLGTQTYICNVNHKPSNTKVDKKVEPKSCDKTHTCPPCPAPDLLGDDSVFLFPPKPKDTLMISRTPEVTCVVVDVSEEDGEVKFNWYVDGVEVHNAKTKPREEQYNSTYRVVSVLTVLHQDWLNGKEYKCKVSNKALPAPIEKTISKAKGQPREPQVYTLPPSRDELTKNQVSLTCLVKGFYPSDIAVEWESNGQPENNYKTTPPVLDSDGSFFLYSKLTVDKSRWQQGNVFSCSVMHEALHNHYTQESLSLSP
chain 2: not shown
For the molecule B1, the Kd with human FcγRIa [1] turned out to be 0.004 µM.

B2: IL6R-BP223 (antibody)
chain 1: QVQLQESGPGLVKPSETLSLTCAVSGHSISHDHAWSWVRQPPGEGLEWIGFISYSGITNYNPSLQGRVTISRDNSKNTLYLQMNSLRAEDTAVYYCARSLARTTAMDYWGEGTLVTVSSASTKGPSVFPLAPSSKSTSGGTAALGCLVKDYFPEPVTVSWNSGALTSGVHTFPAVLQSSGLYSLSSVVTVPSSSLGTQTYICNVNHKPSNTKVDKKVEPKSCDKTHTCPPCPAPEYLGDDSVFLFPPKPKDTLMISRTPEVTCVVVDVSDEDGEVKFNWYVDGVEVHNAKTKPREEQYNSTYRVVSVLTVLHQDWLNGKEYKCKVSNAALPRPIEKTISKAKGQPREPQVYTLPPSRDELTKNQVSLTCLVKGFYPSDIAVEWESNGQPENNYKTTPPVLDSDGSFFLYSKLTVDKSRWQQGNVFSCSVMHEALHNHYTQESLSLSP
chain 2: not shown
The molecule B2 returned a dissociation constant Kd with human FcγRIIa R131 [2] of 0.6 µM.

B3: IL6R-BP447 (antibody)
chain 1: QVQLQESGPGLVKPSETLSLTCAVSGHSISHDHAWSWVRQPPGEGLEWIGFISYSGITNYNPSLQGRVTISRDNSKNTLYLQMNSLRAEDTAVYYCARSLARTTAMDYWGEGTLVTVSSASTKGPSVFPLAPSSKSTSGGTAALGCLVKDYFPEPVTVSWNSGALTSGVHTFPAVLQSSGLYSLSSVVTVPSSSLGTQTYICNVNHKPSNTKVDKKVEPKSCDKTHTCPPCPAPDLLGDDSVFLFPPKPKDTLMISRTPEVTCVVVDVAEEDGEVKFNWYVDGVEVHNAKTKPREEQYNSTYRVVSVLTVLHQDWLNGKEYKCKVSNKALPRPIEKTISKAKGQPREPQVYTLPPSRDELTKNQVSLTCLVKGFYPSDIAVEWESNGQPENNYKTTPAVLDSDGSFFLYSKLTVDKSRWQQGNVFSCSVMHEALHNHYTQESLSLSP
chain 2: not shown
The molecule B3 registered a Kd with human FcγRIa [3] of 0.0009 µM.

B4: IL6R-BP350 (antibody)
chain 1: QVQLQESGPGLVKPSETLSLTCAVSGHSISHDHAWSWVRQPPGEGLEWIGFISYSGITNYNPSLQGRVTISRDNSKNTLYLQMNSLRAEDTAVYYCARSLARTTAMDYWGEGTLVTVSSASTKGPSVFPLAPSSKSTSGGTAALGCLVKDYFPEPVTVSWNSGALTSGVHTFPAVLQSSGLYSLSSVVTVPSSSLGTQTYICNVNHKPSNTKVDKKVEPKSCDKTHTCPPCPAPDLLGDDSVFLFPPKPKDTLMISRTPEVTCVVVDVEEEDGEVKFNWYVDGVEVHNAKTKPREEQYNSTYRVVSVLTVLHQDWLNGKEYKCKVSNKALPAPIEKTISKAKGQPREPQVYTLPPSRDELTKNQVSLTCLVKGFYPSDIAVEWESNGQPENNYKTTPPVLDSDGSFFLYSKLTVDKSRWQQGNVFSCSVMHEALHNHYTQESLSLSP
chain 2: not shown
B4 returned a Kd with human FcγRIIb [4] of 0.1 µM.

B5: IL6R-BP384 (antibody)
chain 1: QVQLQESGPGLVKPSETLSLTCAVSGHSISHDHAWSWVRQPPGEGLEWIGFISYSGITNYNPSLQGRVTISRDNSKNTLYLQMNSLRAEDTAVYYCARSLARTTAMDYWGEGTLVTVSSASTKGPSVFPLAPSSKSTSGGTAALGCLVKDYFPEPVTVSWNSGALTSGVHTFPAVLQSSGLYSLSSVVTVPSSSLGTQTYICNVNHKPSNTKVDKKVEPKSCDKTHTCPPCPAPDLLGDDSVFLFPPKPKDTLMISRTPEVTCVVVDVSDEDGEVKFNWYVDGVEVHNAKTKPREEQDNSTYRVVSVLTVLHQDWLNGKEYKCKVSNKALPRPIERTISKAKGQPREPQVYTLPPSRDELTKNQVSLTCLVKGFYPSDIAVEWESNGQPENNYKTTPPVLDSDGSFFLYSKLTVDKSRWQQGNVFSCSVMHEALHNHYTQESLSLSP
chain 2: not shown
The molecule B5 returned a Kd in the experiment with human FcγRIa [5] of 0.003 µM.

B6: IL6R-BP469 (antibody)
chain 1: QVQLQESGPGLVKPSETLSLTCAVSGHSISHDHAWSWVRQPPGEGLEWIGFISYSGITNYNPSLQGRVTISRDNSKNTLYLQMNSLRAEDTAVYYCARSLARTTAMDYWGEGTLVTVSSASTKGPSVFPLAPSSKSTSGGTAALGCLVKDYFPEPVTVSWNSGALTSGVHTFPAVLQSSGLYSLSSVVTVPSSSLGTQTYICNVNHKPSNTKVDKKVEPKSCDKTHTCPPCPAPDLLGDDSVFLFPPKPKDTLMISRTPEVTCVVVDVSDEDGEVKFNWYVDGVEVHNAKTKPREEQDNSTYRVVSVLTVLHQDWLNGKEYKCKVSNKALPRPISKTISKAKGQPREPQVYTLPPSRDELTKNQVSLTCLVKGFYPSDIAVEWESNGQPENNYKTTPPVLDSDGSFFLYSKLTVDKSRWQQGNVFSCSVMHEALHNHYTQESLSLSP
chain 2: not shown
On to B6, for which binding in the experiment with human FcγRIIa R131 [6] was put at a Kd of 0.6 µM.

B7: IL6R-BP456 (antibody)
chain 1: QVQLQESGPGLVKPSETLSLTCAVSGHSISHDHAWSWVRQPPGEGLEWIGFISYSGITNYNPSLQGRVTISRDNSKNTLYLQMNSLRAEDTAVYYCARSLARTTAMDYWGEGTLVTVSSASTKGPSVFPLAPSSKSTSGGTAALGCLVKDYFPEPVTVSWNSGALTSGVHTFPAVLQSSGLYSLSSVVTVPSSSLGTQTYICNVNHKPSNTKVDKKVEPKSCDKTHTCPPCPAPDLLGDDSVFLFPPKPKDTLMISRTPEVTCVVVDVAEEDGEVKFNWYVDGVEVHNAKTKPREEQYNSTYRVVSVLTVLHQDWLNGKEYKCKVSNKALPRPIEKTISKAKGQPREPQVYTLPPSRDELTKNQVSLTCLVKGFYPSDIAVEWESNGQPENNYKTTPMVLDSDGSFFLYSKLTVDKSRWQQGNVFSCSVMHEALHNHYTQESLSLSP
chain 2: not shown
In the experiment with human FcγRIa [3], B7 showed a Kd of 0.0006 µM.

B8: IL6R-BP468 (antibody)
chain 1: QVQLQESGPGLVKPSETLSLTCAVSGHSISHDHAWSWVRQPPGEGLEWIGFISYSGITNYNPSLQGRVTISRDNSKNTLYLQMNSLRAEDTAVYYCARSLARTTAMDYWGEGTLVTVSSASTKGPSVFPLAPSSKSTSGGTAALGCLVKDYFPEPVTVSWNSGALTSGVHTFPAVLQSSGLYSLSSVVTVPSSSLGTQTYICNVNHKPSNTKVDKKVEPKSCDKTHTCPPCPAPDLLGDDSVFLFPPKPKDTLMISRTPEVTCVVVDVSDEDGEVKFNWYVDGVEVHNAKTKPREEQDNSTYRVVSVLTVLHQDWLNGKEYKCKVSNKALPRPIETTISKAKGQPREPQVYTLPPSRDELTKNQVSLTCLVKGFYPSDIAVEWESNGQPENNYKTTPPVLDSDGSFFLYSKLTVDKSRWQQGNVFSCSVMHEALHNHYTQESLSLSP
chain 2: not shown
In turn, B8 gave a Kd with human FcγRIIb [7] of 0.04 µM.
